Laboratory results published in publication PMC10954620.

Biological target: OmcS nanowires (cytochrome OmcS filaments of Geobacter sulfurreducens) (G. sulfurreducens (endogenous in strain ΔomcZ)) (UniProt Q74A86)
Assay: NMR titration; 1D 1H NMR chemical shift perturbation of the heme methyl signals of oxidized PpcA-E with and without OmcS nanowires, single point at 1:4 heme ratio periplasmic cytochrome:OmcS; 50 mM potassium phosphate with KCl (ionic strength 150 mM), pH 7, 2H2O; 298 K, 600 MHz

Chain of UniProt Q74A86 (Q74A86 26-432, stated change not applied): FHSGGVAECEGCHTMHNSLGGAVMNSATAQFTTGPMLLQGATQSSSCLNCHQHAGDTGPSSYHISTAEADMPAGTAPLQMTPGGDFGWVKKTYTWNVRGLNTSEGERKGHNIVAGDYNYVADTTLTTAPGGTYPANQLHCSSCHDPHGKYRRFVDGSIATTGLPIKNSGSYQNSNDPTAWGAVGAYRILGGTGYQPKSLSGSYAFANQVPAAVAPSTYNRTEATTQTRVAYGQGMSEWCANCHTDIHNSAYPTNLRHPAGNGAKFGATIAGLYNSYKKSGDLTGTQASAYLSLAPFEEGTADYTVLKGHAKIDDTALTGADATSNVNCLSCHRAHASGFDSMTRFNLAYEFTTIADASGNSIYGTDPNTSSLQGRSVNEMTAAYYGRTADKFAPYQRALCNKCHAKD

Row | chemical shift change of heme methyls (Δδ) [ppm] | Substance
1 | < 0.04 | Periplasmic triheme cytochrome PpcA (natural protein)
2 | < 0.04 | Periplasmic triheme cytochrome PpcB (natural protein)
3 | < 0.04 | Periplasmic triheme cytochrome PpcD (natural protein)
4 | < 0.04 | Periplasmic triheme cytochrome PpcE (natural protein)
